Assay results reported in publication PMC9482650, “Quantitative fragmentomics allow affinity mapping of interactomes” (Nature Communications, 2022).

T1: APBA3_2, O96018
T1 sequence (O96018 480-570, limits assumed, looked up): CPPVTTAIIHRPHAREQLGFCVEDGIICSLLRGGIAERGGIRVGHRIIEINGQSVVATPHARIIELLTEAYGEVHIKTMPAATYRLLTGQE

T2: CNKSR1, Q969H4
T2 sequence (Q969H4 191-295, limits assumed, looked up): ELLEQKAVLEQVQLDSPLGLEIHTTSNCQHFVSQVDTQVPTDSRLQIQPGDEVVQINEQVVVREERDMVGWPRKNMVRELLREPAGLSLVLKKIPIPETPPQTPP

T3: INTU, Q9ULD6
T3 sequence (Q9ULD6 180-273, limits assumed, looked up): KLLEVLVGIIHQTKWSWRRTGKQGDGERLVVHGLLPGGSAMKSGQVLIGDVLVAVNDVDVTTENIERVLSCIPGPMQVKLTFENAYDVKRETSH

T4: MPP1, Q00013
T4 sequence (Q00013 66-162, limits assumed, looked up): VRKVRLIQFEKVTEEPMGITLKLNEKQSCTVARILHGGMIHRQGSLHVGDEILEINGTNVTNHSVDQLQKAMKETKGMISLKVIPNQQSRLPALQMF

T5: NHERF1_1, O14745
T5 sequence (O14745 9-104, limits assumed, looked up): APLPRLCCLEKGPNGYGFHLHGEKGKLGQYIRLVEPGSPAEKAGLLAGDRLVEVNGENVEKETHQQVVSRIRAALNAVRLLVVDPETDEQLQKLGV

T6: PARD6B, Q9BYG5
T6 sequence (Q9BYG5 152-260, limits assumed, looked up): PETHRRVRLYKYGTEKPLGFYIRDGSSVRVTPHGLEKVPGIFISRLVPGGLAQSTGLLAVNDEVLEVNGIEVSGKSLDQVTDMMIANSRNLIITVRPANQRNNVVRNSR

T7: PDLIM3, Q53GG5
T7 sequence (Q53GG5 1-94, limits assumed, looked up): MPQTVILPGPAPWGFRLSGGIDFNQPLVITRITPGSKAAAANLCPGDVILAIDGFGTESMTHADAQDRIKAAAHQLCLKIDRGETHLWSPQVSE

T8: PDZD4, Q76G19
T8 sequence (Q76G19 125-224, limits assumed, looked up): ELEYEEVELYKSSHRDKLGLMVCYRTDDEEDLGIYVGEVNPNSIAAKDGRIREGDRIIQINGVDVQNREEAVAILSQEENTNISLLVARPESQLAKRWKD

T9: PDZD7_1, Q9H5P4
T9 sequence (Q9H5P4 81-178, limits assumed, looked up): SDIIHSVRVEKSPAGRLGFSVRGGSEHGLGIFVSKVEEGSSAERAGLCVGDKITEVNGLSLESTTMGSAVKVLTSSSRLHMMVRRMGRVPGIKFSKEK

T10: PDZRN3_2, Q9UPQ7
T10 sequence (Q9UPQ7 414-513, limits assumed, looked up): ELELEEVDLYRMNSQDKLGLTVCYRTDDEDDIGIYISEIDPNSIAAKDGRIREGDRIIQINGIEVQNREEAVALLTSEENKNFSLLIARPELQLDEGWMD

T11: PTPN13_4, Q12923
T11 sequence (Q12923 1783-1878, limits assumed, looked up): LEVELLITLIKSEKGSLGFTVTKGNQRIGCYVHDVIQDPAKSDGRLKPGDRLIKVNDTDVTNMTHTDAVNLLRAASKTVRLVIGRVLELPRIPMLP

T12: PTPN4, P29074
T12 sequence (P29074 512-599, limits assumed, looked up): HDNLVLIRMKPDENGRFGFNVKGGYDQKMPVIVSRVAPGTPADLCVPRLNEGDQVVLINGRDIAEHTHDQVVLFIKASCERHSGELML

T13: SHANK3, Q9BYB0
T13 sequence (Q9BYB0 641-750, limits assumed, looked up): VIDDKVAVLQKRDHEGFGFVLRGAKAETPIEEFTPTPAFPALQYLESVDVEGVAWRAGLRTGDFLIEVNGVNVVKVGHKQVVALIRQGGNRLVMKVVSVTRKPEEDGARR

T14: SHROOM3, Q8TF72
T14 sequence (Q8TF72 20-120, limits assumed, looked up): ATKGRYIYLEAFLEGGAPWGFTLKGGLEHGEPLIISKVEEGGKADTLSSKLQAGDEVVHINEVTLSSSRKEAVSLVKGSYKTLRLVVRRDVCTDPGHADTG

T15: TJP3_1, O95049
T15 sequence (O95049 6-103, limits assumed, looked up): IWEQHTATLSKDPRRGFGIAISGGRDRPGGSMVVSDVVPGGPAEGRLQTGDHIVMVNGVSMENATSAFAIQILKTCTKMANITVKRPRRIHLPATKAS


Experiments:
Assay in all cases: holdup assay
Set-up in all cases: key: below the threshold = too weak to quantify, mostly under pKd 3.1 to 4
Conditions in all cases: plain residues with an end cap or a label only (N-terminal biotin on a linker: ttds)
APBA3_2, O96018 = molecular target: T1, APBA3_2, O96018
CNKSR1, Q969H4 = molecular target: T2, CNKSR1, Q969H4
DLG5_2, Q8TDM6 = molecular target: DLG5_2, Q8TDM6
IL16_2, Q14005 = molecular target: IL16_2, Q14005
INTU, Q9ULD6 = molecular target: T3, INTU, Q9ULD6
MAGI1_3, Q96QZ7 = molecular target: MAGI1_3, Q96QZ7
MAGI1_6, Q96QZ7 = molecular target: MAGI1_6, Q96QZ7
MAGI3_5, Q5TCQ9 = molecular target: MAGI3_5, Q5TCQ9
MAST3, O60307 = molecular target: MAST3, O60307
MPP1, Q00013 = molecular target: T4, MPP1, Q00013
NHERF1_1, O14745 = molecular target: T5, NHERF1_1, O14745
PARD6B, Q9BYG5 = molecular target: T6, PARD6B, Q9BYG5
PDLIM3, Q53GG5 = molecular target: T7, PDLIM3, Q53GG5
PDZD4, Q76G19 = molecular target: T8, PDZD4, Q76G19
PDZD7_1, Q9H5P4 = molecular target: T9, PDZD7_1, Q9H5P4
PDZRN3_2, Q9UPQ7 = molecular target: T10, PDZRN3_2, Q9UPQ7
PREX1_1, Q8TCU6 = molecular target: PREX1_1, Q8TCU6
PTPN13_4, Q12923 = molecular target: T11, PTPN13_4, Q12923
PTPN4, P29074 = molecular target: T12, PTPN4, P29074
SHANK3, Q9BYB0 = molecular target: T13, SHANK3, Q9BYB0
SHROOM3, Q8TF72 = molecular target: T14, SHROOM3, Q8TF72
TJP3_1, O95049 = molecular target: T15, TJP3_1, O95049

Sequence of MAGI1_6, Q96QZ7 (Q96QZ7 1146-1238): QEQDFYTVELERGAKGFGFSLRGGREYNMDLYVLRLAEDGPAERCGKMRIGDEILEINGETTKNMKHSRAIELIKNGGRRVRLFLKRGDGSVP
Sequence of MAST3, O60307 (O60307 945-1048): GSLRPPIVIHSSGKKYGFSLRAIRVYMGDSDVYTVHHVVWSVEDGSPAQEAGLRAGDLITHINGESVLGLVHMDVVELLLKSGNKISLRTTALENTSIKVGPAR
Sequence of MAGI3_5, Q5TCQ9 (Q5TCQ9 847-941): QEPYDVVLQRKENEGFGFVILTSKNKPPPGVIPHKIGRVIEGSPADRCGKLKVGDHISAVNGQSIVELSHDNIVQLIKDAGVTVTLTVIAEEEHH
Sequence of IL16_2, Q14005 (Q14005 350-450): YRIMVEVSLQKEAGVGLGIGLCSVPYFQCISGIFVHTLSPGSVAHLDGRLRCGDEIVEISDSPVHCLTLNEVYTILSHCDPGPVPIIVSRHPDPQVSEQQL
Sequence of MAGI1_3, Q96QZ7 (Q96QZ7 638-725): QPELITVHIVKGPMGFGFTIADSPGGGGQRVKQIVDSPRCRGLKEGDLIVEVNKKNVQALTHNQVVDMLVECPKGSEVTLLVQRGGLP
Sequence of PREX1_1, Q8TCU6 (Q8TCU6 608-718): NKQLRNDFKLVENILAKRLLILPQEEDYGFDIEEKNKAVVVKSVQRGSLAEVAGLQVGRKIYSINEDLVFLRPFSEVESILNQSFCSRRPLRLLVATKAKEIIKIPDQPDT
Sequence of DLG5_2, Q8TDM6 (Q8TDM6 714-800): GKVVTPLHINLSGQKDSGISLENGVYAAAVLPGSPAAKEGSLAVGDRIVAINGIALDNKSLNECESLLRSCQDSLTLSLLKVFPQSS

Binder	pKd (APBA3_2, O96018)	pKd (DLG5_2, Q8TDM6)	pKd (IL16_2, Q14005)	pKd (MAGI1_3, Q96QZ7)	pKd (MAGI1_6, Q96QZ7)	pKd (MAGI3_5, Q5TCQ9)	pKd (MAST3, O60307)	pKd (MPP1, Q00013)	pKd (NHERF1_1, O14745)	pKd (PARD6B, Q9BYG5)	pKd (PDLIM3, Q53GG5)	pKd (PDZD4, Q76G19)	pKd (PDZD7_1, Q9H5P4)	pKd (PDZRN3_2, Q9UPQ7)	pKd (PREX1_1, Q8TCU6)	pKd (PTPN13_4, Q12923)	pKd (PTPN4, P29074)	pKd (SHANK3, Q9BYB0)	pKd (SHROOM3, Q8TF72)	pKd (TJP3_1, O95049)	other results
SSIDLWETAL [SLC15A5, A6NIM6]	below the threshold	below the threshold	below the threshold	below the threshold	5.18	5.57	4.91	below the threshold	below the threshold	below the threshold	below the threshold	below the threshold	4.95	below the threshold	below the threshold	below the threshold	4.84	6.63	4.81	below the threshold	pKd (CNKSR1, Q969H4): below the threshold; pKd (INTU, Q9ULD6): below the threshold
PPRQRSETQV [HPV82-E6, Q9IR59]	below the threshold	below the threshold	below the threshold	4.28	4.21	below the threshold	below the threshold	5.75	below the threshold	below the threshold	below the threshold	below the threshold	below the threshold	below the threshold	below the threshold	below the threshold	below the threshold	below the threshold	below the threshold	below the threshold	pKd (CNKSR1, Q969H4): below the threshold
SGGKRKETLV [NET1, Q7Z628]	below the threshold	4.58	below the threshold	4.91	below the threshold	3.72	below the threshold	below the threshold	below the threshold	below the threshold	below the threshold	3.72	below the threshold	below the threshold	below the threshold	below the threshold	3.51	below the threshold	below the threshold	below the threshold	pKd (INTU, Q9ULD6): below the threshold
SRSRRRETAL [HPV33-E6, P06427]	4.28	4.78	below the threshold	below the threshold	below the threshold	below the threshold	below the threshold	4.79	below the threshold	below the threshold	below the threshold	below the threshold	below the threshold	below the threshold	below the threshold	below the threshold	5.02	below the threshold	below the threshold	below the threshold	pKd (CNKSR1, Q969H4): below the threshold; pKd (INTU, Q9ULD6): 4.54
KLVIKTETTV [RASSF6, Q6ZTQ3]	–	4.33	4.38	4.32	below the threshold	below the threshold	below the threshold	5.13	below the threshold	below the threshold	below the threshold	below the threshold	below the threshold	below the threshold	4.1	below the threshold	4.33	below the threshold	below the threshold	below the threshold	pKd (CNKSR1, Q969H4): below the threshold; pKd (INTU, Q9ULD6): below the threshold
SHSSKGETAV [FZD7, O75084]	below the threshold	below the threshold	below the threshold	below the threshold	4.7	below the threshold	below the threshold	4.85	below the threshold	below the threshold	below the threshold	below the threshold	below the threshold	below the threshold	below the threshold	below the threshold	below the threshold	below the threshold	below the threshold	below the threshold	pKd (CNKSR1, Q969H4): below the threshold; pKd (INTU, Q9ULD6): below the threshold
